assay: soluble on expression in E. coli; label from the status in PepcDB or PDB records

| Sequence | soluble on expression in E. coli |
| --- | --- |
| MGSDKIHHHHHHMKPLRKIRLGIVGCGIAARELHLPALKNLSHLFEITAVTSRTRSHAEEFAKMVGNPAVFDSYEELLESGLVDAVDLTLPVELNLPFIEKALRKGVHVICEKPISTDVETGKKVVELSEKSEKTVYIAENFRHVPAFWKAKELVESGAIGDPVFMNWQIWVGMDENNKYVHTDWRKKPKHVGGFLSDGGVHHAAAMRLILGEIEWISAVAKDLSPLLGGMDFLSSIFEFENGTVGNYTISYSLKGNERFEITGTKGKISISWDKIVLNEEEMKVPQENSYQKEFEDFYQVVAEGKPNDLGSPVQALKDLAFIEACVRSAGNKVFVSSLL | soluble |
| MGSDKIHHHHHHMNQKTRLTLILDELKTHPSLSLKDIMQLTGTSRDTARRDIVKLAAHNLAERNYGGISRPNTFNKLDQYLDRDDDLLQTKRALAHTASSYLLNDALLFLDISTTVACLPQYLQSKHPGMIVTNSLDIADQALRHSNFQTRILGGTLDAQQRCVQGADSILALHKFRFTTTVLSCAGLTADGVYYAYESDIALKETLRAQSDRLVLLFDHTKVNVSHNFNLLALSDFDYFVTDQPLPDNLATKIAPDKLIYL | not soluble |
| MDNPEPARIVRLMEHRADIAIVGGGLNGPALALALAQSGQSVVLVDALPDPLRTDAEFDGRAYALALASQRLLAAVGVWDHVAEAAQPMLEIKVSDGHAGAGPSPFFLHFDHAEIEEGPMGYMVEDRYLRRALLAAMEDAPRITRLNGAAVTAQQTDGTGVVLTLADGSHLRAGLVVGCDGRKSGTATRAGIKRTGWDYGQTALVCAIAHERPHHGIAHQFFMPPGPLAILPLPGNRSSIVWSERTEAAARINALPEAEYLEILRPRFGDFLGEIRLEGARFTYPLNLTVANAFVAERLALVGDAAHGMHPIAGQGLNAGLRDVGALAEVLILAARRGEDIGAAPVLERYQQWRRFDTATLALATDAFNRLFSNDNPLLRLGRDVGMGVIGAFPGLRRGFVREATGLTGDLPKLMQGRAILEHHHHHH | not soluble |
| MSLFSDVAETSSFVFAVAGADDEVVLETIRLALKQKLGKFLLFGKKEDKTLTANESVTWIQTDTAEAAAQGAILAVKNKEADILVKGFIPTATLMHHVLKKENGLRTDQLLSQIAIFDIPTYHKPLLITDCAMNVAPKTKEKIAITENALAVAHQIGITNPKIALLSAVEEVTAKMPSTLEAQEVVQHFGNQISVSGPLALDVAISKEAALHKGITDSSAGEADILIAPNIETGNALYKSLVYFAGAKVGSAVVGAKVPIVISSRNDSPENKLASFILTVRLVEKEGHHHHHH | soluble |
| MCPEFQRKAAGAPRMGAMLARCVLTAALALQAAAAARAVEIEIGVASRGVVDGLEFVQFSADERTMATTHWGNVVHLWDLKTLRVRSSVSVANRDFDFDLSPDGRALAVWNEEGKGEIELYDTDNGQPARALPAPRLPQGESRRGRSLVYRDDGTLEFVSHGWIGGHARKAYLLAVPAGQPRAAETPLPALVNSVAFRKSAVMDQGRLLLAGVDGADDELAIMDIASGRMLAREPGFRIASYAADARRAVFVEADGKQRILAFDFSSRSLSTLPRWTGSGKFQPYRFVAGTRFLVLAPDEPDASTRRAAPGIYDLQTRRLHRLPPDADPGSIDVWGATASYVLCNPDHTACQAEVADLAISRKLGTFAVQPSADFRTWISPSGSMVVVGGADDGTMMVWSVKEQRVIGPNLEHHHHHH | not soluble |
| SLGALGVIAFRRGYYYYVGSANSGVHRVKRHFSIKKKKRWHIDYISAKMEVVGAILSKEPECGLAQRFESFERIRGFGCSDCDCESHLFYSPTLNLEFLST | soluble |
| MNNFTYEKLHNNLQYLKLNTIEELLDNCLEIAARDSKTTMEVLDYLFEQEKKHREAAAIERRMKSAGFPVKKMLEEFDFEFQSSINKKVIEDLATLRFVHNAENIVLLGPPGVGKSHLAIALGIEAVKAGISVHFTNTGNLIERLKIANREGILEKKIRDLMKFKVLIIDEIGYLPFDDEGAHCLFQLISRRYEKSSTILTSNKSYGEWGEIFKDHVIAAALLDRILHHCTTINIKGESYRLKERKKQGIKTGLIRHNSTEILENLEHHHHHH | soluble |
| MKKTKVHLISGFLGTGKTTALKSLMAQKDPNEKWVIIVNEFGEIGIDGAVLSDNGIPVAEIAGGCLCCTAGPQMGVTVQKMLRDAKPDRLMIEASGLAHAASVIDELKTKPLDSLLEIGAVFTVVDPRQFINPDYAQQALYKDQIGICDVLVASKTDLCTPEQLAEFHDKAAKLFPPKAKVVEVQNAQLDIQWLDIPVIEKSRYRLKALPDNTMGFQSQGFTFPAGRDFDGEKLTNFFNDLPNMTEGLVRAKGVFQVLGTWVWLNWVDGQWGANQVSWRRDSRFELIAKSFDADLIEQKLKDALELEHHHHHH | not soluble |
| MRVAIFTDTFTPQVNGVAKTLERLTRYFQKENIAYSVFAPQHTAEDNFVANVNKMRSIPLTILYPECRFSFPTPRIKRELLSFKPDIIHIATPFNMGLCGLYYAKKLNIPVVGSYHTDFDAYLRYYKIEFLSNMLWNYLKWFHSHMQKNFVPSPETLHQLKHKGFQALSIWGRGVDCNLFHPAYNTDLFRKKYNITAKYVLSYIGRIAPEKDIDTLQNLIVKSTHTRNDIHWLIAGDGPLATNLRETVPQTNVTFTGYLQGGDLAEAYACSNLMVFPSATETFGNVVLESLACGTPVIGANSGGVKNIITDGKTGVLCPPKNEDAFLSSIYFLLQNEEKLKQMGIAALSYAKSKSWDEIFRGLLNEYEEVLQHNASELLALEHHHHHH | not soluble |
| MMGCMMIYNPKQLANHLKLIRTKHNLTQTELAKKVGVKQSTLSSFENHPETTQLQTLFKILHALEVHCIIQEQVPASHEDNLDDEAW | not soluble |
| MLEELTLERFLSHRSAFSLVIDVRSPHEYLESHLPGALNLPVLSDLEHERVGTLYKESPFEARILGASLICANIASALSWLKDSLHPSQKVLIYCARGGQRSLSLALILSSIGYQIARLIGGYKGYRAHVAASWQVPRKESFLTLVGPTGGGKSELIQSLSWSLDIEGLARHKGSSFGAIEGEQPSTKMFQNLLFERLLGLREEPLVAVEGESKRLGNLILPSPLYERYKSAPKVFIDSPLEARIDRTMQEYASISPAFFEGAMQKIARYMNKEAHKAASLAFWQGDLRRCAELLLVEYYDKVYKMEPCEYTILHTSKESTLKELERIKGEILSSVRE | not soluble |
| MGSDKIHHHHHHMNKSIFDDINSTNIGSYWTTLSQQMDPYLWETLMPNSKQIASDFVFYRGMSNAPKPLAPSAFGVPAIMRKRSGFDRVSDHTRYFKEGYYIDEAIRQQLLRVGANATQAEKDMINNHIFQDSMELLKGAQLTREIMRNQIIQTGKINVIGNGQTITADYQMKASHRVVNDKAWGTTGSTPFEDIQKARDLVGDDSDQVITRAVMNKATFNALMSDTNVKSTMLYDNGKLANVTIPQSELLNFLVTNYGLTVQIYDKRYMDIDGTKKKWIPDGRVIFLPDGELGKTIMSTTPEEADLAAASDVDMTLVDNGVAITTMLDSDPVNKKINVSQEVMPSFPQIDGIYILDAFAKTGTDPLATTPTAPASTTTTTDPKA | not soluble |
| MDLIAPEDVVVTLSHAGYAKRQPVSAYRAQRRGGRGRSAASTKEEDFIDQLWLVNTHDTLLTFTSSGKVFWLPVHQLPEAGSNARGRPIINWIPLESGERVQAVLPVREYADNRYVFMATRNGTVKKTPLSEFAFRLARGKIAINLDEGDALVGVALTDGDRDVLLFASNGKTVRFGESTVRSMGRTATGVRGIRLAKGEEVVSLIVSERAGGVEDEVEDESAEEVVETTDGAEPAVIDVADNGDVAYILTATENGYGKRTPLAEYPRKGRGTQGVIGIQTTERNGKLVRAVLLGSTDEVMLISDGGTLVRTRGSEISRVGRNTQGVTLIRLSKGEKLQAVERLDASLEEPEDVVDEAVAITSDAPPAEG | soluble |
| MSLENIMTLPKIKQVRAWFTGGATAEKGAGGGDYHDQGANHWIDDHIATPMSKYRDYEQLRQSFGINVLGTLVVEVEAENGQTGFAVSTAGEMGCFIVEKHLNRFIEGKCVSDIKLIHDQMLNATLYYSGSGGLVMNTISCVDLALWDLFGKVVGLPVYKLLGGAVRDEIQFYATGARPDLAKEMGFIGGKMPTHWGPHDGDAGIRKDAAMVADMREKCGEDFWLMLDCWMSQDVNYATKLAHACAPYNLKWIEECLPPQQYEGYRELKRNAPVGMMVTSGEHHGTLQSFRTLSETGIDIMQPDVGWCGGLTTLVEIAAIAKSRGQLVVPHGSSVYSHHAVITFTNTPFSEFLMTSPDCSTMRPQFDPILLNEPVPVNGRIHKSVLDKPGFGVELNRDCNLKRPYSHEGHHHHHH | soluble |
| MSDNEIVAGIMRDHIINLLKEGKRIDDRGFEDYRPIEIEVGIIEKAEGSALVKLGSTQVLVGIKTTLGEPFPDTPNMGVMTTNVELVPLASPTFEPGPPDERAIELARVTDRGIRESRALNLEKMVIVPGKIVRVVFIDVHVLDHDGNLMDAIGIASIAALLNAKVPKVEYNEETGEVEILEEKEPLPVERIPIPVTFAKIGNILVVDPSLEEELVMDGRLTVTTDETGHISAVQKGEGGAFKLEEVMYAVETAFKKAEEIRKIVLEAIKKSGE | soluble |
| MAHHHHHHMRAESSGSESQSRQSERTCGVSPGGPGGPGASPSIVVAVRKRPRIPGREDDENDVVRCGENGGPSVTVYEPRTKLDLTPIIEPSSFSYDHVFGEACTNEEVYRGCCQPLLQNVREGGGAVIFAFGQTGSGKTHTMLGTGERPGLYSLAVTELLTMTEHSTMTASFYEAYGAKLYDLLNDRAEVKMLQDEYQNVHIVGITEQIVSSVDDVNALMMRGQQLRAIGTTHANDRSSRSHAVLEIKLKLADSSSESQLGRITFVDLAGSERASDTAETDAKTRREGAEINKSLLALKECIRAMSMRKRHIPFRGSKLTQILRESFVGRCKTCVIAAISPCQGHCEDTLNTLRYADRIKELKGPANPHNGVKPIPCKTCGQPIFIGDRHVCKRQLVVCPHCRQDVDKQELDTHMSECKESPMRCQYCNERMLRSESVGHSRRCARAPIRCGACGATVPRQLIDRHAQQECAEAKVKCRYCGCVQSRQLLAAHEQNCDAAKVACPHCLQFMRKRRLDGHVATCVRNLSRAMHTPRSTALNIIASTSMETSQTLASSSSSIGAQQSIPKSATAQTAASSRASSSHNRNVAAEPAGGQVDLVAADEGTGPLNFTRAHSSRRSSAQLASGVSLANQSQSNRAPGAGGRWNAGALGADEVSAACDSDCGSVVCPYSRYGCPVKVTRLNVAAHLKESMQQHLELVTTYADRVDEQNMQLRRLVIHETDTLSSRVTMERLDK | not soluble |
| MYWERGLHMYKASAVVPTGYVRVGNTAPLVGEDTQRYASFWGDGYDVYRQLRWQQIPEKQRKAFKKAAKSKKTVMFAGREYGISKQNLSDVWDDFEDAMELKAFPCLSSLFLTKWHKNLYDSGLTKTSTALPRLSSKRTIL | not soluble |
| MAHHHHHHMVDRIEATLNRLIAFGPGTASYTDDAAFLQNVASAMEVAGEIPVLTEACMSLSVDLLENSSPQSAATHAVLTLLACCCMRDDNRELASRFGIFSLCVLLLRSSELLCKDTLLTIFDLIGTLCMSSASTRQMMRPCIPYVLGVMRTHPDCFQLCFSGAVVIGTLVMLDAANAELAAENDCVQILLTAFMRGHDKRKELLNRRRTSYSLRCQREEDESRRLCDNVIRWTEDALQKLVLAPSPVIDAKLEAADFGNYGDRVEVDELMWKLKFGRGKM | not soluble |
| MGSDKIHHHHHHMLGLKLPTDPRWVEIVETNIPEILTDHAYCEQKATTNAMYIVINFPEYTELVSDMIDLAQEELQHFKMVHDIIKKRGLVLGRARAAPYAGDIYAFMRKGHIRKYVLIDRLLFSALIEARSCERFRLLSEQISDPELKEFYRELMISEATHYTTFINYARKYSEGEDIDKRWQEFLAYEATVISKYGDNATMHG | not soluble |
